± gives the standard deviation.
Assay: protein stability index of a GFP-peptide fusion (GPS, HEK-293T) (PSI 1-6); higher = more stable
[1] = treatment: DMSO, c terminus: a fixed tail appended
[2] = treatment: MLN4924 1 uM, 8 h, c terminus: a fixed tail appended
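Further: 24-mer peptide tiles fused after GFP, lentivirally expressed, FACS-sorted into six equal bins by GFP/DsRed ratio, decoded by Illumina sequencing, PSI is the read-weighted mean bin number.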

Row | Sequence | protein stability index [1] | protein stability index [2] | protein stability index (treatment: DMSO, c terminus: native) | protein stability index (treatment: MLN4924 1 uM, 8 h, c terminus: native)
1 | PGVQAPEDLEWERYRGRGSEEYRA [CHGB] | 4.8 ± 0.17 | 5.18 ± 0.63 | – | –
2 | PERLCSGPGIVGNVLVDPSARIGQ [GMPPB] | 3.92 ± 0.27 | 3.89 ± 0.22 | – | –
3 | APGYDPETVTVTVGPAEPTLVNFH [CPN1] | 3.89 ± 0.32 | 3.99 ± 0.35 | – | –
4 | LCSRQDLYPALKGVNTVFHCASPP [NSDHL] | 2.66 ± 0.32 | 2.79 ± 0.25 | – | –
5 | NIYYYLEDDSMSVIEPVVENSGIL [EFHC1] | 2.45 ± 0.43 | 2.41 ± 0.42 | – | –
6 | AEHQFSFMEKRNQWLVSQLSAASP [TRAF3IP2] | 3.02 ± 0.39 | 3.23 ± 0.37 | – | –
7 | VSQWYELVVFTASMEIYGSAVADK [CTDNEP1] | 3.26 ± 0.36 | 3.17 ± 0.48 | – | –
8 | DTQVNPVGSVSVDCGPSRADRCSP [FBXO34] | 5.09 ± 0.32 | 5.15 ± 0.28 | – | –
9 | RDNGDPSLSSTATVLLVLEDEDPE [PCDHGC5] | 4.94 ± 0.36 | 5.16 ± 0.12 | – | –
10 | GKKVSNQRFEVIEFDDGSGSVLRI [PTPRD] | 2.38 ± 0.74 | 2.5 ± 0.26 | – | –
11 | NMSKEDAMVEFVKLLNRCCHLFST [ACBD3] | 2.24 ± 0.16 | 2.29 ± 0.39 | – | –
12 | RVRLDSELRNVQDVVEDYKKRYEE [KRT71] | 4.81 ± 0.28 | 4.97 ± 0.32 | – | –
13 | MTVEKEAPDAHFTVDKQNISLWPR [CD207] | 3.58 ± 0.36 | 3.86 ± 0.5 | – | –
14 | EKIWRPNRVFSLQDLCCRAIVSCT [RAB40C] | 2.76 ± 0.19 | 2.88 ± 0.14 | – | –
15 | RLELERKIESLMDEIEFLKKLHEE [PRPH] | 3.32 ± 0.17 | 3.44 ± 0.31 | – | –
16 | RSALWCLGLNAAFWFFALTSLRLV [RETREG3] | 2.91 ± 0.53 | 3.03 ± 0.72 | – | –
17 | AQQLEEEGPMEEEEAQPMAAPEGK [EID1] | 5.68 ± 0.29 | 5.53 ± 0.35 | – | –
18 | QLQSMPSRELASMNLDIVDLLKKA [RHOBTB3] | 3.46 ± 0.35 | 3.79 ± 0.47 | – | –
19 | VAGSLAGAIAQSSIYPMEVLKTRM [SLC25A25] | 2.56 ± 0.11 | 2.54 ± 0.32 | – | –
20 | IAMTSGTVQPKQDAFANFANFSK [CLINT1] | – | – | 4.22 ± 0.22 | 4.17 ± 0.31
21 | RNSLSAIFNNVMTLCAMLPLLLFT [SLC29A1] | 3.3 ± 0.65 | 3.33 ± 0.22 | – | –
22 | RDYIHSLKLLNVLEEYITDEQKEE [FAM9B] | 3.37 ± 0.38 | 3.52 ± 0.34 | – | –
23 | NEPSQAETAVEGDPSGVSGATVGR [C18orf25] | 5.66 ± 0.22 | 5.66 ± 0.11 | – | –

Row | Sequence | protein stability index [1] | protein stability index [2] | protein stability index (treatment: DMSO, c terminus: native) | protein stability index (treatment: MLN4924 1 uM, 8 h, c terminus: native)
24 | YREESDSLGQDLRRLRQELLKTEA [DAPK3] | 3.85 ± 0.68 | 3.83 ± 0.31 | – | –
25 | GPALPNGPLLGTNGATDDSKTNLI [ELAVL3] | 4.99 ± 0.17 | 4.93 ± 0.33 | – | –
26 | LEEMILPLMVASAQSGERECHIVV [BTBD10] | 2.35 ± 0.79 | 2.48 ± 0.48 | – | –
27 | ESTFMYLTLDLPTAPLYKDEKEQL [USP39] | 3.4 ± 0.2 | 3.55 ± 0.15 | – | –
28 | ALTGPVVDIVTGHARLSDIWAKTP [DHCR7] | 2.63 ± 0.21 | 2.71 ± 0.17 | – | –
29 | EKKDDENIPMETEETHLEETTESQ [SMARCE1] | 5.58 ± 0.43 | 5.39 ± 0.57 | – | –
30 | DGEILFSLLQKVSPVAHKHLSRQK [TBC1D10A] | 2.36 ± 0.11 | 2.48 ± 0.37 | – | –
31 | NIVEYLIQEQPGQEQVAGGEAQPG [FEM1A] | 4.33 ± 0.25 | 4.15 ± 0.47 | – | –
32 | PIYGLRQSILLNTRLQDCYVDSPA [C22orf31] | 2.69 ± 0.2 | 2.55 ± 0.38 | – | –
33 | EDPFYWVSPGVLVLLAVLPVLLLQ [MOG] | 2.52 ± 0.41 | 2.38 ± 0.69 | – | –
34 | QKRLKSKLLDHDNVKYLKKILDEL [GDAP1] | 2.1 ± 0.24 | 2.19 ± 0.22 | – | –
35 | LCGENFSHRSNLIRHQRIHTGEKP [ZNF263] | 3.91 ± 0.17 | 3.72 ± 0.22 | – | –
36 | LYQKQPKIGYHLLYYLRASKAAAG [INTS3] | 2.55 ± 0.31 | 2.25 ± 0.33 | – | –
37 | SQMPPPAGGTSDDPEPSGPHLPRV [SCNN1D] | 5.23 ± 0.31 | 5.43 ± 0.12 | – | –
38 | RAGSQVVATTARHSAAYRADPLRV [FUNDC2] | 3.59 ± 0.22 | 3.78 ± 0.17 | – | –
39 | LDGKKKGVEPSPSPIKPGDIKRGI [UFD1] | 4.92 ± 0.24 | 4.92 ± 0.25 | – | –
40 | HLEGYHGTAGDSMSYHSGSVFSAR [TNXB] | 3.16 ± 0.43 | 3.47 ± 0.44 | – | –
41 | ERLQKEEEKRRREEEERLRREEEE [ACBD3] | 5.67 ± 0.26 | 5.59 ± 0.23 | – | –
42 | REALTRLQELCYQWLRPHVSTKEQ [ZSCAN9] | 1.99 ± 0.24 | 2.46 ± 0.32 | – | –
43 | AALNAHSDCCRKLLSSGFEIDTPD [ANKRD44] | 3.61 ± 0.24 | 3.59 ± 0.42 | – | –
44 | VQRHNSFSPNSPQFNVSGPGLLEE [NECAB1] | 4.03 ± 0.21 | 4.33 ± 0.32 | – | –
45 | SVTDVTTSSLRLNWEAPPGAFDSF [TNXB] | 3.54 ± 0.2 | 3.35 ± 0.16 | – | –
46 | SVVGTVLAATQAEKAVANFDRTEW [ZC2HC1C] | 3.26 ± 0.21 | 3.26 ± 0.3 | – | –

Row | Sequence | protein stability index [1] | protein stability index [2] | protein stability index (treatment: DMSO, c terminus: native) | protein stability index (treatment: MLN4924 1 uM, 8 h, c terminus: native)
47 | ELDIPQSVQQNGSIYIHVYFTKSG [CLPTM1] | 2.3 ± 0.57 | 2.85 ± 0.67 | – | –
48 | MKDSMSAAEVGTGQYATTKGISQT [EPB41L3] | 4.75 ± 0.094 | 4.78 ± 0.44 | – | –
49 | SFRAGSKGLSGGFGSRSLYSLGGV [KRT71] | 2.12 ± 0.21 | 2.77 ± 0.33 | – | –
50 | ISNVCEEYIVKKLSRQEFLGMVGL [SLC35F2] | 2.32 ± 0.17 | 2.35 ± 0.13 | – | –
51 | TVRAMTHVINQGMAMYWGTSRWSS [KCNAB2] | 2.91 ± 0.42 | 2.75 ± 0.51 | – | –
52 | YEKAYEGGSELGGWSLGRWTHDGI [CPXM2] | 2.49 ± 0.82 | 2.69 ± 0.16 | – | –
53 | LMIIVCIDQWKNKIWPEIKVPRPD [RETREG3] | 2.81 ± 0.43 | 2.82 ± 0.45 | – | –
54 | GQDTFCQGKADGLYPNPRERSSFY [CHIT1] | 3.71 ± 0.28 | 3.57 ± 0.35 | – | –
55 | LPTDAVDCMSRELVSLTSRNPDQR [FBXO34] | 4.85 ± 0.25 | 4.9 ± 0.17 | – | –
56 | AAWGARVFSFGKHYWELDVDNSCD [TRIM43] | 2.25 ± 0.44 | 2.28 ± 0.3 | – | –
57 | QIPTQNTQARQVMEREFNNLLALG [PPFIA4] | 3.56 ± 0.12 | 3.37 ± 0.21 | – | –
58 | PDVRPPLGRGLVGGQEEASQEAGL [SEPHS2] | 5.27 ± 0.14 | 5.31 ± 0.18 | – | –
59 | NQNRAYVTLAAHFLGLGAPNCLSM [ZBED1] | 3.07 ± 0.95 | 3.08 ± 0.59 | – | –
60 | MQLKSPMPSSTTQKDSYQPPGNVY [SPAG8] | 4.13 ± 0.17 | 4.14 ± 0.16 | – | –
61 | ECDNMLMLLSVSQSMSEEEREKVT [SEPHS2] | 4.58 ± 0.12 | 4.58 ± 0.24 | – | –
62 | ETILNAFKMLDPDGKGKINKEYIK [MYL5] | 2.96 ± 0.31 | 3.17 ± 0.41 | – | –
63 | GNKCDLEDERVVGKEQGQNLARQW [RAP1B] | 4.7 ± 0.12 | 4.73 ± 0.14 | – | –
64 | ESFYESTSPECASPQFEGPLSPPP [NEUROD6] | 4.92 ± 0.19 | 4.94 ± 0.22 | – | –
65 | EELNNGEPQTEHQQESESEIDSVP [MIA2] | 5.6 ± 0.24 | 5.52 ± 0.43 | – | –
66 | LLRPPVAAFVRAQADLLAHLVPEP [DNAAF3] | 2.23 ± 0.31 | 2.33 ± 0.31 | – | –
67 | QAGPEATTSDPQDLDMKKHRCKCC [PALM] | 5.06 ± 0.3 | 5.17 ± 0.11 | – | –
68 | GGDLEEQQHAEGSPEPGTPAAPTP [DNAAF3] | 5.61 ± 0.26 | 5.54 ± 0.31 | – | –
69 | QWEYPYLLSILPSLLGLLSFPRNN [JAGN1] | 2.85 ± 0.25 | 2.94 ± 0.35 | – | –

Row | Sequence | protein stability index [1] | protein stability index [2] | protein stability index (treatment: DMSO, c terminus: native) | protein stability index (treatment: MLN4924 1 uM, 8 h, c terminus: native)
70 | RDSHGKGIPNAIISVEGINHDIRT [CPXM2] | 4.2 ± 0.21 | 4.17 ± 0.27 | – | –
71 | IVEDPQTKCEYMLNSMPKRLCLVC [ESRRG] | 2.39 ± 0.46 | 2.05 ± 0.24 | – | –
72 | TFNPHKRISAFRALQHSYLHKDEG [CDK4] | 2.87 ± 0.14 | 3.12 ± 0.09 | – | –
73 | EGATLLLRGLCANTVLRFLDLKGN [LRRC45] | 2.6 ± 0.4 | 2.98 ± 0.77 | – | –
74 | PWARGCGMFTFLSSVTAAVSGLLV [SLC2A12] | 2.54 ± 0.3 | 2.57 ± 0.21 | – | –
75 | QSGLVWTNCWLIRELNLPFGGMKS [ALDH8A1] | 2.6 ± 0.48 | 2.61 ± 0.68 | – | –
76 | FVELQGFLAAEQDIREEIRKVVQS [TSN] | 2.21 ± 0.41 | 2.48 ± 0.82 | – | –
77 | HFPASPFWSVMFFLMLINLGLGSM [SLC6A17] | 3.67 ± 0.42 | 3.4 ± 0.25 | – | –
78 | HDGKNQPGVAYPAFLGPDEAFALP [SPSB4] | 4.12 ± 0.3 | 4.06 ± 0.21 | – | –
79 | RLVFLAAFVVYLETETLVTREAVT [TSN] | 3.6 ± 0.24 | 2.82 ± 0.34 | – | –
80 | MAAESGELIGACEFMKDRLYFATL [CDC14A] | 2.53 ± 1.1 | 1.82 ± 0.46 | – | –
81 | GPAGHSKGELAPELGEEPQPRDEE [POLD4] | 5.41 ± 0.23 | 5.43 ± 0.15 | – | –
82 | VKHQCCPGCGYFCTAGNFMECQPE [EHMT1] | 3.31 ± 0.19 | 3.31 ± 0.5 | – | –
83 | GHSQPDGAYSSASSFSRPLGYPYV [DLX1] | 3.35 ± 0.14 | 3.17 ± 0.29 | – | –
84 | EAYTKICDPGLTAFEPEALGNLVE [CAMK2D] | 3.91 ± 0.25 | 3.62 ± 0.27 | – | –
85 | RSHSDSLDHDIFQLIDPDENKENE [CDC25A] | 5.14 ± 0.44 | 5.48 ± 0.2 | – | –
86 | CASKYGRDWERYTAAVPYRLLPGI [DHCR7] | 2.05 ± 0.24 | 2.2 ± 0.21 | – | –
87 | PVLEDNYMYLVIEELTREAVAVDV [HAGHL] | 2.34 ± 0.57 | 2.47 ± 0.17 | – | –
88 | ENQLVRKQDVLGPSTTPPAHSSSN [SASS6] | 5.19 ± 0.21 | 5.29 ± 0.069 | – | –
89 | LMDYIGINLATMNSCINPIALYFV [EDNRA] | – | 3.08 ± 0.24 | – | –

Reference: the supplement of paper PMC10567573
